Experimental data from the supplement of paper PMC7877785.
± gives the uncertainty stated by the source.

Test: self-splicing fitness, log relative to wild type (ln ratio); higher = more splicing; Tetrahymena group I intron in knt gene, E. coli kanamycin selection, DiMSum; sequences stand for … in CUCUCU…GGAGGGAAAAGUUAUCAGGCAUGCACCUGGUAGCUAGUCUUUAAACCAAUAGAUUGCAUCGGUUUAAAAGGCAAGACCGUCAAAUUGCGGGAAAGGGGUCAACAGCCGUUCAGUACCAAGUCUCAGGGGAAACUUUGAGAUGGCCUUGCAAAGGGUAUGGUAAUAAGCUGACGGACAUGGUCCUAACCACGCAGCCAAGUCCUAAGUCAACAGAUCUUCUGUUGAUAUGGAUGCAGUUCACAGACUAAAUGUCGGUCGGGGAAGAUGUAUUCUUCUCAUAAGAUAUAGUCGGACCUCUCCUUAAUGGGAGCUAGCGGAUGAAGUGAUGCAACACUGGAGCCGCUGGGAACUAAUUUGUAUGCGAAAGUAUAUUGAUUAGUUUUGGAGUACUCGUGGUCG
How it was run: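 Pooled colonies went to amplicon sequencing on an Illumina HiSeq 2500 after six replicate transformations. The plates were LB agar with 100 μg/mL carbenicillin, 50 μM IPTG and 0.2% rhamnose, with or without 25 μg/mL kanamycin, incubated overnight at 37°C or 30°C. The E. coli BL21(DE3) library had all eight P1ex-region intron nucleotides randomised, the intron placed in the knt kanamycin-resistance gene on pET-22b(+). DiMSum fitness is the error-weighted combination of replicate fold changes, kanamycin against none, normalised to wild type.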

Row | Sequence | self-splicing fitness (ln) (30 °C) | self-splicing fitness (ln) (37 °C)
1 | GGAGAGCAAUAUUACGAUAU | -3.43 ± 0.24 | -0.657 ± 0.16
2 | UAUCAGCAAUAUUACGACUG | 0.153 ± 0.078 | 0.512 ± 0.13
3 | CAGCAGCAAUAUUACGCGGU | -1.52 ± 0.1 | -1.74 ± 0.18
4 | GUUGAGCAAUAUUACGAUGC | -2.24 ± 0.49 | -2.24 ± 0.45
5 | GACCAGCAAUAUUACGAACG | -0.447 ± 0.075 | -0.466 ± 0.11
6 | UCGAAGCAAUAUUACGACGU | -0.755 ± 0.1 | -0.205 ± 0.099
7 | AAUGAGCAAUAUUACGUUAU | -4.01 ± 0.21 | -3.73 ± 0.24
8 | CACAAGCAAUAUUACGCAGA | -2.72 ± 0.2 | -1.43 ± 0.16
9 | UCUCAGCAAUAUUACGUCCA | -2.72 ± 0.16 | -1.35 ± 0.2
10 | CUGCAGCAAUAUUACGUUUC | -3.11 ± 0.14 | -3.1 ± 0.25
11 | CUAAAGCAAUAUUACGAUUA | -2.51 ± 0.092 | -1.19 ± 0.12
12 | CUUGAGCAAUAUUACGUGGG | -3.3 ± 0.38 | -3.17 ± 0.27
13 | GAUGAGCAAUAUUACGGAAG | -2.31 ± 0.33 | 
14 | AAUCAGCAAUAUUACGAAAG | -1.78 ± 0.12 | -0.272 ± 0.13
15 | ACGCAGCAAUAUUACGCAUG | -3.56 ± 0.14 | -2.57 ± 0.21
16 | CCCGAGCAAUAUUACGCGUG | -3.9 ± 0.2 | -3.2 ± 0.29
17 | AAGUAGCAAUAUUACGAGCA | -1.52 ± 0.15 | -0.816 ± 0.14
18 | ACCUAGCAAUAUUACGGUAG | -3.45 ± 0.15 | -2.49 ± 0.18
19 | GAUGAGCAAUAUUACGGGGA |  | -2.04 ± 0.25
20 | AUUGAGCAAUAUUACGUCCU | -2.41 ± 0.19 | -0.811 ± 0.15

Row | Sequence | self-splicing fitness (ln) (30 °C) | self-splicing fitness (ln) (37 °C)
21 | GCAUAGCAAUAUUACGAAAC | -2.18 ± 0.12 | -0.684 ± 0.1
22 | CCUUAGCAAUAUUACGCGCC | -2.8 ± 0.4 | 
23 | GUGCAGCAAUAUUACGAGUG | -2.2 ± 0.15 | -2.11 ± 0.17
24 | CGCAAGCAAUAUUACGCCCC | -1.49 ± 0.36 | -0.475 ± 0.38
25 | AAGGAGCAAUAUUACGGCUC | -4.14 ± 0.37 | -2.77 ± 0.36
26 | ACUAAGCAAUAUUACGUUAG | -2.59 ± 0.13 | -2.1 ± 0.17
27 | GCAAAGCAAUAUUACGGCGU | -1.78 ± 0.1 | -0.692 ± 0.12
28 | CAAUAGCAAUAUUACGUCCG | -0.215 ± 0.1 | -0.267 ± 0.13
29 | CGACAGCAAUAUUACGCCGU | -2.62 ± 0.35 | -1.55 ± 0.33
30 | UUUCAGCAAUAUUACGUUAU | -2.94 ± 0.2 | -1.47 ± 0.14
31 | GUGGAGCAAUAUUACGGGGU | -3.24 ± 0.44 | -2.26 ± 0.42
32 | GCGUAGCAAUAUUACGACCU | -0.0292 ± 0.22 | -0.575 ± 0.34
33 | AGGCAGCAAUAUUACGCAUA | -0.866 ± 0.081 | -1.07 ± 0.093
34 | CGGAAGCAAUAUUACGGAAU | -2.11 ± 0.16 | -1.08 ± 0.19
35 | CACUAGCAAUAUUACGUCGC | -3.66 ± 0.24 | -2.66 ± 0.27
36 | GGCCAGCAAUAUUACGUGCC | -3 ± 0.15 | -0.478 ± 0.24
37 | UGAGAGCAAUAUUACGUACC | -2.65 ± 0.36 | 
38 | ACUAAGCAAUAUUACGUCGC | -3.12 ± 0.18 | -1.86 ± 0.2
39 | UUAAAGCAAUAUUACGGCAA | 0.101 ± 0.12 | 0.186 ± 0.16
40 | ACAAAGCAAUAUUACGGAAU | -3.21 ± 0.19 | -1.82 ± 0.19
